Source: the RNAGym collection of RNA variant scans (doi:10.7554/elife.80360)

B1: CPEB3 Ribozyme (parent)
chain: GGGGGCCACAGCAGAAGCGUUCACGUCGCGGCCCCUGUCAGAUUCUGGUGAAUCUGCGAAUUCUGCUGU

Variants of: B1
Assay: self-cleavage, relative activity (ratio to wild type); higher = more cleavage; co-transcriptional

| Variant | self-cleavage |
| --- | --- |
| GGGAGCCACAGCAGAAGCGUUCACGUCGCGGCCCCUGUCCGAUUCUGGUGAAUCUGCGAAUUCUGCUGU [G4A A40C] | 0.216 |
| GGGAGCCACAGCAGAAGCGUUCACGUCGCGGCCCCUGUCAGAUUCUGGUGUAUCUGCGAAUUCUGCUGU [G4A A51U] | 0.804 |
| GGUGGCCACAGCAGAAGCGUUCACGUCGCGGCCCCUGUCAGAUUCUGGUGAAUCUGCGAAUUCUGCAGU [G3U U67A] | 0.406 |
| GGGAGCCACAGCAGGAGCGUUCACGUCGCGGCCCCUGUCAGAUUCUGGUGAAUCUGCGAAUUCUGCUGU [G4A A15G] | 0.93 |
| GGGAGCCACAGCAGUAGCGUUCACGUCGCGGCCCCUGUCAGAUUCUGGUGAAUCUGCGAAUUCUGCUGU [G4A A15U] | 0.455 |
| GGGAGCCACAGCAGCAGCGUUCACGUCGCGGCCCCUGUCAGAUUCUGGUGAAUCUGCGAAUUCUGCUGU [G4A A15C] | 0.329 |
| GGGAGCCUCAGCAGAAGCGUUCACGUCGCGGCCCCUGUCAGAUUCUGGUGAAUCUGCGAAUUCUGCUGU [G4A A8U] | 0.86 |
| GGGAGCCGCAGCAGAAGCGUUCACGUCGCGGCCCCUGUCAGAUUCUGGUGAAUCUGCGAAUUCUGCUGU [G4A A8G] | 0.698 |
| GGGAGCCCCAGCAGAAGCGUUCACGUCGCGGCCCCUGUCAGAUUCUGGUGAAUCUGCGAAUUCUGCUGU [G4A A8C] | 0.897 |
| GGGAGCCACCGCAGAAGCGUUCACGUCGCGGCCCCUGUCAGAUUCUGGUGAAUCUGCGAAUUCUGCUGU [G4A A10C] | 0.968 |
| GGGAGCCACGGCAGAAGCGUUCACGUCGCGGCCCCUGUCAGAUUCUGGUGAAUCUGCGAAUUCUGCUGU [G4A A10G] | 0.868 |
| GGGAGCAACAGCAGAAGCGUUCACGUCGCGGCCCCUGUCAGAUUCUGGUGAAUCUGCGAAUUCUGCUGU [G4A C7A] | 0.0893 |
| GGGAGCUACAGCAGAAGCGUUCACGUCGCGGCCCCUGUCAGAUUCUGGUGAAUCUGCGAAUUCUGCUGU [G4A C7U] | 0.458 |
| GGUGGCCACAGCAGAAGCGUUCACGUCGCGGCCCCUGUCAGAUUCUGAUGAAUCUGCGAAUUCUGCUGU [G3U G48A] | 0.245 |
| GGUGGCCACAGCAGAAGCGUUCACGUCGCGGCCCCUGUCAGACUCUGGUGAAUCUGCGAAUUCUGCUGU [G3U U43C] | 0.0372 |
| GGUGGCCACAGCAGAAGCGUUCACGUCGCGGCCCCUGUCAGAAUCUGGUGAAUCUGCGAAUUCUGCUGU [G3U U43A] | 0.0999 |
| GGGAGACACAGCAGAAGCGUUCACGUCGCGGCCCCUGUCAGAUUCUGGUGAAUCUGCGAAUUCUGCUGU [G4A C6A] | 0.0589 |
| GGUGGCCACAGCAGAAGCGUUCACGUCGCGGCCCCUGGCAGAUUCUGGUGAAUCUGCGAAUUCUGCUGU [G3U U38G] | 0.0509 |
| GGUGGCCACAGCAGAAGCGUUCACGUCGCGGCCCCUGCCAGAUUCUGGUGAAUCUGCGAAUUCUGCUGU [G3U U38C] | 0.0341 |
| GGUGGCCACAGCAGAAGCGUUCACGUCGCGGCCCCUGUCAGAUUCUGGUGAAUCUGCGAAUUCUGCUGC [G3U U69C] | 0.46 |
| GGUGGCCACAGCAGAAGCGUUCACGUCGCGGCCCCUGUCAGAUUCUGGUGAAUCUGCGAAUUCUGCUGG [G3U U69G] | 0.283 |
| GGUGGCCACAGCAGAAGCGUUCACGUCGCGGCCCCUGUCAGAUUCUGGUGAAUCUGCGAAUUCUGCUGA [G3U U69A] | 0.301 |
| GGUGGCCACAGCAGAAGCGUUCACGUCGCGGCCCCCGUCAGAUUCUGGUGAAUCUGCGAAUUCUGCUGU [G3U U36C] | 0.122 |
| GGUGGCCACAGCAGAAGCGUUCACGUCGCGGCCCCGGUCAGAUUCUGGUGAAUCUGCGAAUUCUGCUGU [G3U U36G] | 0.135 |
| GGGAGCCACAGCAGAGGCGUUCACGUCGCGGCCCCUGUCAGAUUCUGGUGAAUCUGCGAAUUCUGCUGU [G4A A16G] | 0.737 |
| GGGAGCCACAGCAGAUGCGUUCACGUCGCGGCCCCUGUCAGAUUCUGGUGAAUCUGCGAAUUCUGCUGU [G4A A16U] | 0.459 |

| Variant | self-cleavage |
| --- | --- |
| GGGAGCCACAGCAGAAGCGUUCACGUCGCGGCCCCUGUCAGAUUCUGGUGAUUCUGCGAAUUCUGCUGU [G4A A52U] | 0.882 |
| GGGAGCCACAGCAGAAGAGUUCACGUCGCGGCCCCUGUCAGAUUCUGGUGAAUCUGCGAAUUCUGCUGU [G4A C18A] | 0.147 |
| GGUGGCCACAGCAGAAGCGUUCACGUCGCGGCCCCUGUCAGAUUCUGGUGAAUCUGCGAAAUCUGCUGU [G3U U61A] | 0.0525 |
| GGUGGCCACAGCAGAAGCGUUCACGUCGCGGCCCCUGUCAGAUUCUGGUGAAUCUGCGAACUCUGCUGU [G3U U61C] | 0.0446 |
| GGUGGCCACAGCAGAAGCGUUCACGUCGCGGCCCCUGUCAGAUUCUGGUGAAUCUGCAAAUUCUGCUGU [G3U G58A] | 0.0734 |
| GGUGGCCACAGCAGAAGCGUUCACGUCGCGGCCCCUGUCAGAUUCUGGUGAAUCUGCCAAUUCUGCUGU [G3U G58C] | 0.0675 |
| GGUGGCCACAGCAGAAGCGUUCACGUCGCGGCCCCUGUCAGAUUCUGGCGAAUCUGCGAAUUCUGCUGU [G3U U49C] | 0.176 |
| GGUGGCCACAGCAGAAGCGUUCACGUCGCGGCCCCUGUCAGAUUCUGGAGAAUCUGCGAAUUCUGCUGU [G3U U49A] | 0.201 |
| GGUGGCCACAGCAGAAGCGUUCACGUCGCGGCCCCUGUCAGAUUCUGGUGAAUCUGCGAAUUCCGCUGU [G3U U64C] | 0.132 |
| GGUGGCCACAGCAGAAGCGUUCACGUCGCGGCCCCUGUCAGAUUCUGGUGAAUCUGCGAAUUCAGCUGU [G3U U64A] | 0.128 |
| GGUGGCCACAGCAGAAGCGUUCACGUCGCGGCCCCUGUCAGAUUCUGGUGAAUCUGCGAAUUCGGCUGU [G3U U64G] | 0.138 |
| GGUGGCCACAGCAGAAGCGUUCACGCCGCGGCCCCUGUCAGAUUCUGGUGAAUCUGCGAAUUCUGCUGU [G3U U26C] | 0.107 |
| GGUGGCCACAGCAGAAGCGUUCACGGCGCGGCCCCUGUCAGAUUCUGGUGAAUCUGCGAAUUCUGCUGU [G3U U26G] | 0.0677 |
| GGUGGCCACAGCAGAAGCGUUCACGUCGCGGCCCCUGUCAGAUUCUGGUGAACCUGCGAAUUCUGCUGU [G3U U53C] | 0.0626 |
| GGUGGCCACAGCAGAAGCGUUCACGUCGCGGCCCCUGUCAGAUUCUGGUGAAACUGCGAAUUCUGCUGU [G3U U53A] | 0.112 |
| GGUGGCCACAGCAGAAGCGUUCACGUCGCGGCCCCUGUCAGAUUCCGGUGAAUCUGCGAAUUCUGCUGU [G3U U46C] | 0.105 |
| GGUGGCCACAGCAGAAGCGUUCACGUCGCGGCCCCUGUCAGAUUCGGGUGAAUCUGCGAAUUCUGCUGU [G3U U46G] | 0.161 |
| GGGAGCCACAGAAGAAGCGUUCACGUCGCGGCCCCUGUCAGAUUCUGGUGAAUCUGCGAAUUCUGCUGU [G4A C12A] | 0.477 |
| GGGAGCCACAGGAGAAGCGUUCACGUCGCGGCCCCUGUCAGAUUCUGGUGAAUCUGCGAAUUCUGCUGU [G4A C12G] | 0.5 |
| GGGAGCCACAGCAGAAGCGUUCACGUCGCGGCCCCUGUCAGCUUCUGGUGAAUCUGCGAAUUCUGCUGU [G4A A42C] | 0.473 |
| GGGAGCCACAGCAGAAGCGUUCACGUCGCGGCCCCUGUCAGGUUCUGGUGAAUCUGCGAAUUCUGCUGU [G4A A42G] | 0.806 |
| GGGAGCCACAGCAGAAGCGUUCACGUCGCGGCCCCUGUCAGAUUCUGGUGAAUCUGCGAUUUCUGCUGU [G4A A60U] | 0.264 |
| GGGAGCCACAGCAGAAGCGUUCACGUCGCGGCCCCUGUCAGAUUCUGGUGAAUCUGCGACUUCUGCUGU [G4A A60C] | 0.217 |
| GGGAGCCACAGCAGAAGCGUUCACGUCGCGGCCCCUGUCAGAUUCUGGUGAAUCUGCGAGUUCUGCUGU [G4A A60G] | 0.475 |
| GGGAGCCACAGCCGAAGCGUUCACGUCGCGGCCCCUGUCAGAUUCUGGUGAAUCUGCGAAUUCUGCUGU [G4A A13C] | 0.588 |
| GGGAGCCACAGCUGAAGCGUUCACGUCGCGGCCCCUGUCAGAUUCUGGUGAAUCUGCGAAUUCUGCUGU [G4A A13U] | 0.66 |

| Variant | self-cleavage |
| --- | --- |
| GGUGGCCACAGCAGAAGCGAUCACGUCGCGGCCCCUGUCAGAUUCUGGUGAAUCUGCGAAUUCUGCUGU [G3U U20A] | 0.0443 |
| GGUGGCCACAGCAGAAGCGUUCACGUCGCGGCCCCUGUCAGAUUCUGGUGAAUCUGCGAAUUCUGCUAU [G3U G68A] | 0.554 |
| GGUGGCCACAGCAGAAGCGUUCACGUCGCGGCCCCUGUCAGAUUCUGGUGAAUCUUCGAAUUCUGCUGU [G3U G56U] | 0.109 |
| GGUGGCCACAGCAGAAGCGUUCACGUCGCGGCCCCUGUCAGAUUCUGGUGAAUCUCCGAAUUCUGCUGU [G3U G56C] | 0.0723 |
| GGUGGCCACAGCAGAAGCGUUCACGUCGCGGCCCCUGUCAGAUUCUGGUGAAUCUGCGAAUGCUGCUGU [G3U U62G] | 0.108 |
| GGUGGCCACAGCAGAAGCGUUCACGUCGCGGCCCCUGUCAGAUUCUGGUGAAUCUGCGAAUACUGCUGU [G3U U62A] | 0.0711 |
| GGUGGCCACAGCAGAAGCGUUCACGUCGCGGCCCCUGUCAGAUUCUGGUCAAUCUGCGAAUUCUGCUGU [G3U G50C] | 0.145 |
| GGUGGCCACAGCAGAAGCGUUCACGUCGCGGCCCCUGUCAGAUUCUGGUGAAUCCGCGAAUUCUGCUGU [G3U U55C] | 0.104 |
| GGGAGCCACAGCAGAAGCGUUCUCGUCGCGGCCCCUGUCAGAUUCUGGUGAAUCUGCGAAUUCUGCUGU [G4A A23U] | 0.886 |
| GGGAGCCACAGCAGAAGCGUUCGCGUCGCGGCCCCUGUCAGAUUCUGGUGAAUCUGCGAAUUCUGCUGU [G4A A23G] | 0.827 |
| GGUGGCCACAGCAGAAGCGUCCACGUCGCGGCCCCUGUCAGAUUCUGGUGAAUCUGCGAAUUCUGCUGU [G3U U21C] | 0.0376 |
| GGUGGCCACAGCAGAAGCGUGCACGUCGCGGCCCCUGUCAGAUUCUGGUGAAUCUGCGAAUUCUGCUGU [G3U U21G] | 0.0385 |
| GGUGGCCACAGCAGAAGCGUACACGUCGCGGCCCCUGUCAGAUUCUGGUGAAUCUGCGAAUUCUGCUGU [G3U U21A] | 0.157 |
| GGUGGCCACAGCAGAAGCGUUCACGUCGCGGCCCCUGUCAGAUUCUGGUGAAUCUGCGAAUUCUCCUGU [G3U G65C] | 0.0613 |
| GGUGGCCACAGCAGAAGCGUUCACGUCGCGGCCCCUGUCAGAUUCUGGUGAAUCUGCGAAUUCUACUGU [G3U G65A] | 0.171 |
| GGUGGCCACAGCAGAAGCGUUCACGUCGCGGCCCCUGUCAGAUUCUUGUGAAUCUGCGAAUUCUGCUGU [G3U G47U] | 0.175 |
| GGUGGCCACAGCAGAAGCGUUCACGUCGCGGCCCCUGUCAGAUUCUCGUGAAUCUGCGAAUUCUGCUGU [G3U G47C] | 0.177 |
| GGGAGCCACAGCAGAAGCGUUCACGUCGCGGCCCCUGUCAGAUUCUGGUGAAUCUGCGUAUUCUGCUGU [G4A A59U] | 0.283 |
| GGGAGCCACAGCAGAAGCGUUCACGUCGCGGCCCCUGUCAGAUUCUGGUGAAUCUGCGGAUUCUGCUGU [G4A A59G] | 0.749 |
| GGGAGCCACAGCAGAAGCGUUCACGUCGCGGCCCCUGUCAGAUUCUGGUGAAUCUGCGCAUUCUGCUGU [G4A A59C] | 0.32 |
| GGGAGCCAAAGCAGAAGCGUUCACGUCGCGGCCCCUGUCAGAUUCUGGUGAAUCUGCGAAUUCUGCUGU [G4A C9A] | 1.03 |
| GGGAGCCAGAGCAGAAGCGUUCACGUCGCGGCCCCUGUCAGAUUCUGGUGAAUCUGCGAAUUCUGCUGU [G4A C9G] | 1.05 |
| GGGAGCCAUAGCAGAAGCGUUCACGUCGCGGCCCCUGUCAGAUUCUGGUGAAUCUGCGAAUUCUGCUGU [G4A C9U] | 0.953 |
| GGUGGCCACAGCAGAAGCGUUCACGUCGCGGCCCCUGUCAGAUGCUGGUGAAUCUGCGAAUUCUGCUGU [G3U U44G] | 0.115 |
| GGUGGCCACAGCAGAAGCGUUCACGUCGCGGCCCCUGUCAGAUACUGGUGAAUCUGCGAAUUCUGCUGU [G3U U44A] | 0.0987 |
| GGUGGCCACAGCAGAAGCGUUCACGUCGCGGCCCCUGUCAGAUCCUGGUGAAUCUGCGAAUUCUGCUGU [G3U U44C] | 0.127 |
